Source: patent US20240101959A1, “USE OF IL-2R-BETA-GAMMA AGONIST PEPTIDES IN CELL MANUFACTURING” (MEDIKINE, INC., priority 2022, published 2024)
Positions of bridges follow the written chain, without caps; N, C: chain ends. No end group written: not given here.

T1: hu-IL-2Rβ subunit (human, UniProt P14784 27-240, limits assumed)
T1 construct: also called human interleukin-2 receptor subunit β; CD122
T1 sequence (looked up): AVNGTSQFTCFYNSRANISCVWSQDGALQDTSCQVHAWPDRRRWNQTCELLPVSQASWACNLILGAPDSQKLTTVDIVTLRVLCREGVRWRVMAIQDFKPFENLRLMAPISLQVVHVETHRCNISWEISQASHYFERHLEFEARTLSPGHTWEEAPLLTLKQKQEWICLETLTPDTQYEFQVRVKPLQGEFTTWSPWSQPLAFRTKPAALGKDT

B1: SEQ ID NO 185 (peptide)
peptide: WKPCWLAQLGDLCEME
B2: SEQ ID NO 184 (peptide)
peptide: WQPCWMAQLGELCDLE
B3: SEQ ID NO 225 (peptide)
peptide: WFPCWMAQLGDLCELEPDSVPA
B4: SEQ ID NO 208 (peptide)
peptide: IPKGESWFPCWMAAMGELCDLE
modifications: disulfide 10-19 (inferred)
B5: SEQ ID NO 213 (peptide)
peptide: WKPCWMARLGELCDIEDTKVNA
B6: SEQ ID NO 90 (peptide)
peptide: WRPCWRAYLGELCDLEAMPRAT
B7: SEQ ID NO 199 (peptide)
peptide: DTGRDGWKPCWMALLGELCELE
B8: SEQ ID NO 89 (peptide)
peptide: WFPCWMAQLGQLCDLE
B9: SEQ ID NO 196 (peptide)
peptide: WLSPPSYLPCWMAQLGELCDLV
B10: SEQ ID NO 233 (peptide)
peptide: WYPCWMAQLGELCDHEWPSYGA
B11: SEQ ID NO 211 (peptide)
peptide: YKPCQMAQLGELCDLDVDNKAE
B12: SEQ ID NO 91 (peptide)
peptide: IRSCSPCWSADVGELCDLECEW
B13: SEQ ID NO 234 (peptide)
peptide: MGSWLPCWMAQLGDLCDVEGGM
B14: SEQ ID NO 206 (peptide)
peptide: YRRERVEFPCWLAQLGELCDKE
B15: SEQ ID NO 207 (peptide)
peptide: AVSHGNWLPCYIAQLGELCDLD
B16: SEQ ID NO 238 (peptide)
peptide: RRSWYPCRIAQLGELCDLDPRV
modifications: disulfide 7-16 (inferred)
B17: SEQ ID NO 219 (peptide)
peptide: GYPCWLAQLGDYCDLDAGAPSW
B18: SEQ ID NO 221 (peptide)
peptide: WKPCWLAQLGELCDLERPSTTS
B19: SEQ ID NO 79 (peptide)
peptide: QPCWLAQVGDLCDLLWPGPL
B20: SEQ ID NO 92 (peptide)
peptide: SGHWYPCWMARLGELCDMEERA
B21: SEQ ID NO 228 (peptide)
peptide: WKPCWMAALGELCDLERSVGKV
B22: SEQ ID NO 186 (peptide)
peptide: WLPCWMAKLGDLCELE
B23: SEQ ID NO 189 (peptide)
peptide: SLPCWMAQLGELCDLV
B24: SEQ ID NO 217 (peptide)
peptide: RLPCWRAQLGDLCELDWGLDMG
B25: SEQ ID NO 194 (peptide)
peptide: WNPCWIAQLGDLCDMV
B26: SEQ ID NO 209 (peptide)
peptide: WYPCWIAQLGEVCDLEKQTGSV
B27: SEQ ID NO 193 (peptide)
peptide: WSPCWIATLGELCDLD
B28: SEQ ID NO 197 (peptide)
peptide: WDVHAIRNPCWLAKLGDLCDLD
B29: SEQ ID NO 182 (peptide)
peptide: SNPCWMAQLWELCDLE
B30: SEQ ID NO 198 (peptide)
peptide: GAGVLHRWPCWMAKLGDLCDLD
B31: SEQ ID NO 218 (peptide)
peptide: SKPCWMAQLGELCDLDVWNLQM
B32: SEQ ID NO 214 (peptide)
peptide: SLPCWIARLGELCDLDGYDGEE
B33: SEQ ID NO 216 (peptide)
peptide: WKPCWIADLGELCDLAPAWHEY
B34: SEQ ID NO 202 (peptide)
peptide: GQVVETSLPCWEAQLGELCVLD
B35: SEQ ID NO 195 (peptide)
peptide: WLPCWLAHLGDICDLQ
B36: SEQ ID NO 222 (peptide)
peptide: WYSCGKAQLGELCDLDVESQPG
B37: SEQ ID NO 191 (peptide)
peptide: WWPCSSAELGEICDFD
B38: SEQ ID NO 200 (peptide)
peptide: EQGMLGYFPCWKALLGDVCDLD
B39: SEQ ID NO 187 (peptide)
peptide: WLPCWMAQLGELCVME
B40: SEQ ID NO 204 (peptide)
peptide: ALVGGTFYPCYVAHLGELCDIE
modifications: disulfide 10-19 (inferred)
B41: SEQ ID NO 237 (peptide)
peptide: WRRWYPCWMAQLGELCDLDQWT
B42: SEQ ID NO 192 (peptide)
peptide: WQPCWRAKLGELCDLE
B43: SEQ ID NO 210 (peptide)
peptide: WYPCWMAHLGDVCDLESFGQTE
B44: SEQ ID NO 232 (peptide)
peptide: WYPCYMASLGELCDLQSSISPR
B45: SEQ ID NO 239 (peptide)
peptide: AYRIYPCWKAQLGELCDLDNAD
B46: SEQ ID NO 230 (peptide)
peptide: FFPCWMGQLGDLCDLEVRSMQK
B47: SEQ ID NO 212 (peptide)
peptide: FKPCWIANLGELCDMDDERSSE
modifications: disulfide 4-13 (inferred)
B48: SEQ ID NO 231 (peptide)
peptide: YWPCSMASLGELCDLEWQGRLP
B49: SEQ ID NO 223 (peptide)
peptide: YVPCYMARLGELCELEANRPGQ
B50: SEQ ID NO 229 (peptide)
peptide: WKPCWRAQLGELCDLELGPSER
B51: SEQ ID NO 236 (peptide)
peptide: GSGWQPCWMADLGELCDLDNEK
B52: SEQ ID NO 190 (peptide)
peptide: WKPCWMAGLGELCELD
B53: SEQ ID NO 227 (peptide)
peptide: WKPCFIASLGELCDLDQGSVEV
B54: SEQ ID NO 240 (peptide)
peptide: QRNSFPCWLAQLGDLCDLGDWA
B55: SEQ ID NO 203 (peptide)
peptide: TVGQFEWYPCSTAQLGELCDLD
B56: SEQ ID NO 220 (peptide)
peptide: SWPCWMAQLGDLCDLDGSAGAS
B57: SEQ ID NO 201 (peptide)
peptide: WRVTASLQPCWMAQLGELCDLN
B58: SEQ ID NO 88 (peptide)
peptide: VMSPTRWLPCWIAKLGELCDLE
B59: SEQ ID NO 235 (peptide)
peptide: QKGFLPCWRAQLGQLCDMESQY
B60: SEQ ID NO 226 (peptide)
peptide: WTPCWIAHLGDLCDLEPQDDTD
B61: SEQ ID NO 188 (peptide)
peptide: LHPCWMAQLGELCDLE
modifications: disulfide 4-13 (inferred)
B62: SEQ ID NO 224 (peptide)
peptide: SKPCWLAQLGDLCDFDWTAADH
B63: SEQ ID NO 183 (peptide)
peptide: YKPCWIAQLGELCELE
B64: SEQ ID NO 215 (peptide)
peptide: FYPCWKARLGELCELEELRGYY
B65: SEQ ID NO 205 (peptide)
peptide: IDRADGWKPCWIAQVGELCVLE
B66: SEQ ID NO 93 (peptide)
peptide: WYPCWMAQLGELCDLQTMGYSH

Target: T1, hu-IL-2Rβ subunit
Test: phage ELISA competition assay

IC50 | Binder
< 100 µM | B1
< 100 µM | B2
< 100 µM | B3
< 100 µM | B4
< 100 µM | B5
< 100 µM | B6
< 100 µM | B7
< 100 µM | B8
< 100 µM | B9
< 100 µM | B10
< 100 µM | B11
< 100 µM | B12
< 100 µM | B13
< 100 µM | B14
< 100 µM | B15
< 100 µM | B16
< 100 µM | B17
< 100 µM | B18
< 100 µM | B19
< 100 µM | B20
< 100 µM | B21
< 100 µM | B22

IC50 | Binder
< 100 µM | B23
< 100 µM | B24
< 100 µM | B25
< 100 µM | B26
< 100 µM | B27
< 100 µM | B28
< 100 µM | B29
< 100 µM | B30
< 100 µM | B31
< 100 µM | B32
< 100 µM | B33
< 100 µM | B34
< 100 µM | B35
< 100 µM | B36
< 100 µM | B37
< 100 µM | B38
< 100 µM | B39
< 100 µM | B40
< 100 µM | B41
< 100 µM | B42
< 100 µM | B43
< 100 µM | B44

IC50 | Binder
< 100 µM | B45
< 100 µM | B46
< 100 µM | B47
< 100 µM | B48
< 100 µM | B49
< 100 µM | B50
< 100 µM | B51
< 100 µM | B52
< 100 µM | B53
< 100 µM | B54
< 100 µM | B55
< 100 µM | B56
< 100 µM | B57
< 100 µM | B58
< 100 µM | B59
< 100 µM | B60
< 100 µM | B61
< 100 µM | B62
< 100 µM | B63
< 100 µM | B64
< 100 µM | B65
< 100 µM | B66
